Source: paper PMC10541012

Columns and labels:
[1] = molecular target: Cdh1 (UniProt P53197); test: FLAG-bead in vitro Co-IP, immunoblot; settings: reference: wild type FLAG-Set1; sites S228
[2] = molecular target: Cdh1 (UniProt P53197); test: FLAG-bead in vitro Co-IP after Cla4; settings: reference: wild type FLAG-Set1, Cla4-treated; sites S228

Substance	binding against the reference [1]	binding against the reference [2]
Set1 (from UniProt P38827) FLAG-Set1-S228A	stronger	–
Set1 (from UniProt P38827) FLAG-Set1-S228A, Cla4-treated	–	stronger
